According to paper PMC10532153, “Interactions of the N- and C-Terminal SH3 Domains of Drosophila Drk with the Proline-Rich Peptides from Sos and Dos” (International Journal of Molecular Sciences, 2023):

Legend:
[1] = target: T1, C-terminal SH3 domain of Drosophila Drk (Drk-CSH3) (Drosophila, UniProt Q08012 153-211); assay: NMR titration; 2D 1H-15N HSQC of 15N-labelled Drk-CSH3 (0.3 mM), peptide added stepwise up to protein:peptide 1:8; NMR buffer (20 mM KH2PO4/K2HPO4 pH 7.4, 100 mM KCl, 1 mM DTT, 0.05% NaN3); 25 °C; CSPs fitted to a single-binding model, bootstrap 1000 iterations; conditions: both partners purified
T1 construct: Downstream receptor kinase (Drk), Drosophila homologue of GRB2, 211 residues; C-terminal SH3 domain; the solution structure PDB 7Y4N is of this domain

[2] = target: T2, N-terminal SH3 domain of Drosophila Drk (Drk-NSH3) (Drosophila, UniProt Q08012 1-59); assay: NMR titration; 2D 1H-15N HSQC of 15N-labelled Drk-NSH3 (0.3 mM), peptide added stepwise up to protein:peptide 1:8; 20 mM KH2PO4/K2HPO4 pH 7.4, 100 mM KCl, 1 mM DTT, 0.05% NaN3, 10% D2O; 25 °C; CSPs fitted to a conformational selection model (Kd and Kf), bootstrap 1000 iterations; conditions: both partners purified
T2 construct: Downstream receptor kinase (Drk), Drosophila homologue of GRB2, 211 residues; N-terminal SH3 domain, residues 1-59; Isolated domain is in equilibrium between a folded and an unfolded state; source: E. coli BL21 (DE3) star, pET-3a, uniformly 15N-labelled, purified (DEAE sepharose, Superdex 75, Resource Q)
T2 sequence (Q08012 1-59): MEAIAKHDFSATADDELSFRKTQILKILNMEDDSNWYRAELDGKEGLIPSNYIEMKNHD

T1 sequence (Q08012 153-211): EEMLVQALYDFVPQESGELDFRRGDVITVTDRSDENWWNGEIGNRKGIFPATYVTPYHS

B1: Dos-S2 peptide (Daughter of Sevenless residues 690-702) (peptide)
peptide: GPPSVDRKCKPNA
notes: Daughter of Sevenless (Dos), Drosophila, proline-rich motif PxxxRxxKP in the C-terminal unstructured region, residues 690-702; Thirteen residues; the nine-residue peptide of the earlier study extended by two residues at each end; also called "longer" Dos-S2; source: synthetic peptide, bought: Eurofins Genomics
**Q.** Which results are given for B1?
**A.** Kd [1]: 250 ± 21.5 µM; Kd [2]: 242 ± 11.6 µM
